Measured values: paper doi:10.1101/791277 (2019)
Where no end group is shown, it is not given here. [ ]: non-standard residue; d: D form. The star is where a group is joined. 5FAM = O=C1OC2(c3ccc(O)cc3Oc3cc(O)ccc32)c2ccc(C(=O)*)cc21; pY = N[C@@H](Cc1ccc(OP(=O)(O)O)cc1)C(=O)O

T1: p85β cSH2 (603-712) (mouse, UniProt O08908 603-712)
T1 chain: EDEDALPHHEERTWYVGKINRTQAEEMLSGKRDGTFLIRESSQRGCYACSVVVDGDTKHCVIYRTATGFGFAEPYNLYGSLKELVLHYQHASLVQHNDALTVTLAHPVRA


Key:
Test in all cases: FP
p85β cSH2 (603-712) = molecular target: T1, p85β cSH2 (603-712)
p85α cSH2 (614-720) = p85α cSH2 (614-720) (human, UniProt P27986 614-720)
p85α cSH2 (614-720), sequence (P27986 614-720): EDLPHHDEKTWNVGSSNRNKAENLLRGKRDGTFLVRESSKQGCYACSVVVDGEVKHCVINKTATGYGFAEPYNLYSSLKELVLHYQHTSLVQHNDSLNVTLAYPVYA

p85α nSH2 (325-430) = p85α nSH2 (325-430) (human, UniProt P27986 325-430)
p85α nSH2 (325-430), sequence (P27986 325-430): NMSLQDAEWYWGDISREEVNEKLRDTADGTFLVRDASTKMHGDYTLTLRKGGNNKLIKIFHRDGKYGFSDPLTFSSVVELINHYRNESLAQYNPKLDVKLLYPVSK

p85α nSH2 R358M = p85α nSH2 R358M (human, UniProt P27986 325-430, R358M)
p85α nSH2 R358M, sequence (P27986 325-430 R358M): as the sequence (P27986 325-430) above, with R34M counted along it

p85β nSH2 (312-425) = p85β nSH2 (312-425) (mouse, UniProt O08908 312-425)
p85β nSH2 (312-425), sequence (O08908 312-425): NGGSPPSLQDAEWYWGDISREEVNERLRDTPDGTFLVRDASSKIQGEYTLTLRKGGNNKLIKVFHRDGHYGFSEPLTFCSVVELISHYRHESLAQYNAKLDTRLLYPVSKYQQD

Kd (p85β cSH2 (603-712)) [µM]	Kd (p85α cSH2 (614-720)) [µM]	Kd (p85α nSH2 (325-430)) [µM]	Kd (p85α nSH2 R358M) [µM]	Kd (p85β nSH2 (312-425)) [µM]	Binder
0.1	0.043	–	–	–	5FAM-SD[pY]MNMTP [CD28 peptide, [5-FAM]-SD-[pY]-MNMTP]
–	0.656	0.082	2.9	0.052	5FAM-TEDQ[pY]SLMEDE [p85β pY607 peptide, [5-FAM]-TEDQ-[pY]-SLMEDE]
–	84	2.4	–	9	5FAM-TEDQ[pY]SLVEDE [p85α pY607 peptide, [5-FAM]-TEDQ-[pY]-SLVEDE]
